From patent US20150253335

Assays:
[1] = system: crypto-V. cholerae VibB labeled with coumarin-PPant
[2] = system: crypto-S. coelicolor ActACP labeled with coumarin-PPant
[3] = system: crypto-FITC-ybbR (rhodamine WT PPant-labeled FITC-ybbR)
[4] = system: crypto-M. tuberculosis AcpM (Type II) labeled with coumarin-PPant
[5] = system: crypto-A. orientalis CepK labeled with coumarin-PPant
[6] = system: crypto-P. fluorescens PltL labeled with coumarin-PPant
[7] = system: crypto-E. coli AcpP (type II FAS acyl carrier protein labeled with coumarin-PPant)
[8] = system: crypto-A. parasiticus PksA carrier protein labeled with coumarin-PPant
[9] = system: crypto-ybbR free peptide (coumarin-PPant labeled 11 amino acid ybbR)
[10] = system: holo-E. coli AcpP
[11] = system: crypto-L. majuscula JamF labeled with coumarin-PPant
[12] = system: crypto-P. agglomerans AdmI labeled with coumarin-PPant
[13] = system: crypto-ybbR-eGFP fusion with N-terminal GFP and C-terminal 6xHis (coumarin-PPant labeled)
[14] = system: crypto-P. agglomerans AdmA labeled with coumarin-PPant
[15] = system: crypto-G. fujikuroi Pks4 carrier protein labeled with coumarin-PPant
[16] = system: crypto-P. syringae SyrB1 labeled with coumarin-PPant
[17] = system: coumarin-PPant labeled FITC-ybbR conjugate
[18] = system: crypto-L. majuscula JamC labeled with coumarin-PPant
[19] = system: crypto-ybbR-eGFP fusion with N-terminal 6xHis and C-terminal GFP (coumarin-PPant labeled)
[20] = system: crypto-MBP-PaAcpP (MBP fusion of P. aeruginosa AcpP labeled with coumarin-PPant)
[21] = system: crypto-P. falciparum apicoplast ACP (Type II) labeled with coumarin-PPant
[22] = system: holo-SoAcpP (S. oneidensis type II FAS AcpP)
[23] = system: crypto-Lux-ACP (rhodamine-PPT labeled fusion of bacterial luciferase with E. coli ACP)
[24] = system: crypto-GFP-ACP (rhodamine-PPT labeled fusion of E. coli ACP with GFP)
[25] = system: crypto-MBP-PaACP (rhodamine-PPT labeled MBP fusion of P. aeruginosa ACP)

Row | Substance | AcpH qualitative CP activity [1] | AcpH qualitative CP activity [2] | AcpH qualitative CP activity [4] | AcpH qualitative CP activity [5] | AcpH qualitative CP activity [6] | AcpH qualitative CP activity [7] | AcpH qualitative CP activity [8] | AcpH activity with modified ybbR peptide [9] | AcpH qualitative CP activity [11] | AcpH qualitative CP activity [12] | AcpH activity with modified ybbR peptide [13] | AcpH qualitative CP activity [14] | AcpH qualitative CP activity [15] | AcpH qualitative CP activity [16] | AcpH activity with modified ybbR peptide [17] | AcpH qualitative CP activity [18] | AcpH activity with modified ybbR peptide [19] | AcpH qualitative CP activity [20] | AcpH qualitative CP activity [21] | AcpH qualitative CP activity [22] | also measured
1 | acyl carrier protein hydrolase (AcpH) from Cyanothece PCC 7822 | no | no | YES | no | no | YES | YES | YES | no | no | YES | no | no | no | YES | YES | YES | YES | YES | YES^† | Km [3]: 21 µM; Vmax [3]: 0.004 min⁻¹; kcat [3]: 6.67e-05 s⁻¹; kcat/KM [3]: 3.33 M⁻¹ s⁻¹; Km [10]: 58 µM; Vmax [10]: 1.1 min⁻¹; kcat [10]: 3.52 s⁻¹; kcat/KM [10]: 60000 M⁻¹ s⁻¹
2 | acyl carrier protein hydrolase (AcpH) from Pseudomonas aeruginosa PAO1 | no | no | YES | no | YES | YES | YES | no | no | no | no | no | no | no | no | YES | no | YES | YES | YES^† | Km [3]: 177 µM; Vmax [3]: 0.008 min⁻¹; kcat [3]: 0.000133 s⁻¹; kcat/KM [3]: 0.783 M⁻¹ s⁻¹; removal of rhodamine-PPT from ACP fusion protein [23]: AcpH removed rhodamine-PPT from ACP attached to three different fusion partners ... an N-terminal bacterial luciferase fusion (Lux-ACP); AcpH activity with NRPS-type peptidyl carrier proteins [6]: The observed partial activity resulted from PaAcpH with PltL; removal of rhodamine-PPT from ACP fusion protein [24]: AcpH removed rhodamine-PPT from ACP attached to three different fusion partners ... a C-terminal green fluorescent protein (GFP); Km [10]: 12 µM; Vmax [10]: 0.59 min⁻¹; kcat [10]: 0.00983 s⁻¹; kcat/KM [10]: 817 M⁻¹ s⁻¹; removal of rhodamine-PPT from ACP fusion protein [25]: AcpH removed rhodamine-PPT from ACP attached to three different fusion partners, an N-terminal maltose binding protein (MBP)
3 | acyl carrier protein hydrolase (AcpH) from Pseudomonas fluorescens NCIMB 10586 | no | YES | YES | no | no | YES | YES | YES | no | YES | YES | no | YES | no | YES | YES | YES | YES | YES | YES^† | Km [3]: 48 µM; Vmax [3]: 0.17 min⁻¹; kcat [3]: 0.00283 s⁻¹; kcat/KM [3]: 50 M⁻¹ s⁻¹
4 | annotated hypothetical AcpH homolog from Shewanella oneidensis MR-1 | no | no | no | no | no | no | no | no | no | no | no | no | no | no | no | no | no | no | no | no | Vmax [10]: NC†
